Among the data in the supplement of paper PMC12042874 are amyloid nucleation score values, retold here.

± gives the uncertainty stated by the source.

This series in a line: amyloid nucleation score (Sup35N fusion, yeast selection) (log enrichment); library NNK1; higher = more nucleation; inactive = no reads after selection. An outline of the steps:
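Nucleation score is defined as the DiMSum log enrichment of output over input reads, with centring on the mode score of non-aggregating sequences. A minimum of 100 input reads was required for each sequence. Reads came from Illumina sequencing of plasmid inserts from psi-negative yeast expressing Sup35N fused to peptides of 20 random codons, induced with 100 μM copper sulfate for 24 hours and grown 7 days at 30°C on medium lacking adenine and uracil.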
AHSCSLV yielded an amyloid nucleation score of 0.61 ± 0.7.

For the substance AHSGMRLL, the amyloid nucleation score stood at 0.569 ± 0.75.

The substance AICKRRQLRVLSQALRLSLL returned an amyloid nucleation score of 1.14 ± 0.4.

The substance AIDIYGYLRFPCWLRVLFT had an amyloid nucleation score of -1.06 ± 0.45.

Turning to AIFVCNH, the amyloid nucleation score came out at 0.229 ± 0.5.

AILFLFFN: the amyloid nucleation score was found to be 2.66 ± 0.14.

AILRSAM came in with an amyloid nucleation score of 0.284 ± 0.46.

The substance AILVHCSVLTVA registered an amyloid nucleation score of 0.584 ± 0.66.

Turning to AIRMLSISCNFMVVIL, the amyloid nucleation score is 0.837 ± 0.93.

In the case of AISVWMSMNGPITPDR, the amyloid nucleation score worked out at 0.907 ± 0.59.

Consider AKVPVKGQRLRTGLPKSTHT, for which the amyloid nucleation score was -1.88 ± 1.4.

Turning to ALCLKGSMNVEFMIRTSGFN, the amyloid nucleation score came out at 0.705 ± 0.51.

In turn, ALLGFRSCMQASFFFFRWFI showed an amyloid nucleation score of -0.801 ± 0.89.

Consider ALPREWKCMSLLFENGSGNS, for which the amyloid nucleation score result was “inactive”.

For the substance ALRFFWDPFIDG, the amyloid nucleation score worked out at 0.388 ± 0.81.

Substance ALRGMWNKVRSGGWCYRCTW displayed an amyloid nucleation score of -0.05 ± 1.4.

For the substance ALRKVYCSFIHNIWACSWAI, the amyloid nucleation score entry is “inactive”.

AMCLV displayed an amyloid nucleation score of -0.373 ± 0.88.

Substance AMHNSSDGCRFDTYSVCVYW had an amyloid nucleation score of 2.68 ± 0.21.

The substance AMKVFYDMWKTACY returned an amyloid nucleation score of -0.507 ± 0.7.

Turning to AMLKDRNMLADYFHGVILGA, the amyloid nucleation score entry was “inactive”.

In turn, AMMPLVLNQVVFDVAALTNR returned an amyloid nucleation score of 7.68 ± 0.054.

In turn, AMNGVLVIGGV yielded an amyloid nucleation score of -0.668 ± 1.7.

The substance AMRLMDILCLIVCPHEYMWP had an amyloid nucleation score of 1.54 ± 0.17.

The substance AMVGLMMELAHRKLNR returned an amyloid nucleation score of 0.523 ± 0.45.

Take AMYVDQVLHQPRPLMSPRMQ: the amyloid nucleation score was determined as 0.515 ± 0.51.

ANGMEGL displayed an amyloid nucleation score of 1.13 ± 0.81.

On to ANIHYL, for which the amyloid nucleation score was 2.63 ± 0.12.

For the substance ANMHRVKAYCHIFGLSHETE, the amyloid nucleation score was -0.775 ± 0.73.

For ANSVRWTCMLVIIFQYRPTS, the amyloid nucleation score is 2.5 ± 0.15.

APFHEGNIFRAVTFKTYPSR returned an amyloid nucleation score of -0.422 ± 0.72.

Turning to AQSSVKRWGGLCRNVMKDGW, the amyloid nucleation score is 0.276 ± 0.32.

The substance AQWVLMWYVRHVR gave an amyloid nucleation score of 1.49 ± 0.18.

In turn, ARCCWRG showed an amyloid nucleation score of -0.849 ± 1.1.

As to ARFCRGGRIVSLMRVLTQTR, the amyloid nucleation score was -0.931 ± 1.3.

Take ARHSYN: the amyloid nucleation score result was “inactive”.

In the case of ARLENVTHFRFLQTNLGYIE, the amyloid nucleation score was determined as 0.082 ± 0.67.

Substance ARMFELRPLNRTHYSRAKRT gave an amyloid nucleation score of 0.124 ± 0.5.

As for ARMVVCHPAGFGGAWPSRWC, the amyloid nucleation score is -0.105 ± 0.93.

ARTDWFLNSRSSDYAIGFPY gave an amyloid nucleation score of -0.157 ± 0.79.

ARTGPTSASVGGLQPVCPGD showed an amyloid nucleation score of -0.019 ± 0.55.

For the substance ARWCEGRYSFILNKQQKLAK, the amyloid nucleation score came to 0.662 ± 0.49.

Turning to ARYPRGDGVGDMSSRLIVVY, the amyloid nucleation score was 1.26 ± 0.2.

The substance ASAGPRWIWFGLGLQRCDAY displayed an amyloid nucleation score of -0.141 ± 0.87.

The substance ASFEKFNNVTLGCSTDSE gave an amyloid nucleation score of 0.666 ± 0.48.

On to ASFLRNVFWVIREYTLCEYV, for which the amyloid nucleation score came to 0.647 ± 0.19.

In turn, ASGFESCDTEVVGFRGVCYA displayed an amyloid nucleation score of 1.42 ± 0.51.

ASNYGQWSCHPGRSLFVQFF: the amyloid nucleation score amounted to 4.56 ± 0.11.

ASQRSQNCCIVESIDEVLFS registered an amyloid nucleation score of 0.85 ± 0.41.

ASSGPAIYFNGRQRTFYYSD yielded an amyloid nucleation score of 1.05 ± 0.29.

Consider ASSGSVGVLNLATHTTVKWQ, for which the amyloid nucleation score was determined as 4.04 ± 0.14.

On to ASVVQVTGRGSVGMVFPCCS, for which the amyloid nucleation score was -0.558 ± 0.56.

ASWTHVIFTYPLGKA yielded an amyloid nucleation score of 0.035 ± 1.

For the substance ATAHCWLRQESGEFGDLWIP, the amyloid nucleation score turned out to be 0.276 ± 0.19.

Take ATAVYMSVLMVPDLRMKAEG: the amyloid nucleation score came to 1.5 ± 0.7.

On to ATCNNI, for which the amyloid nucleation score was -0.431 ± 1.4.

Regarding ATGARLKLCQELRSTLGMLT, the amyloid nucleation score was -0.608 ± 0.45.

Substance ATHPDSSMYNRTTSSNFMWF had an amyloid nucleation score of -0.573 ± 0.75.

Turning to ATREQDFWWFDER, the amyloid nucleation score was -1.48 ± 1.2.

With ATSLSCKSKFPMTDVAHLHH, the amyloid nucleation score amounted to 0.406 ± 0.2.

ATTLGCQWDWKWSAFGAWLQ displayed an amyloid nucleation score of -1.08 ± 1.1.

In turn, ATVKVPNNSIRNDFFSNDRD showed an amyloid nucleation score of -1.13 ± 1.2.

For the substance AVASMWPRGLALSRLVSLNA, the amyloid nucleation score worked out at 0.05 ± 0.47.

For AVCQRNLFGIVRICRSKTR, the amyloid nucleation score stood at 4.64 ± 0.055.

The substance AVCYHGFRMATAASEVCGAS displayed an amyloid nucleation score of 0.327 ± 0.38.

Take AVGKYLWASVGIAFDRQSIM: the amyloid nucleation score is -0.837 ± 2.4.

The substance AVKYRGNVMFKIRHIMLKCM gave an amyloid nucleation score of 0.023 ± 0.42.

For AVLNQYRELKQAGSFYVSTM, the amyloid nucleation score turned out to be 0.618 ± 0.52.

For the substance AVLRRYQFVYDLSYLYEDFL, the amyloid nucleation score was -0.836 ± 0.48.

AVLSPGWWESLYPRRVVHSC came in with an amyloid nucleation score of -0.354 ± 0.54.

As for AVNYIADFGTVDRCCITFPL, the amyloid nucleation score turned out to be 0.645 ± 0.4.

AVPCSC gave an amyloid nucleation score of 0.189 ± 0.3.

In the case of AVQFCCWDMRTVIAS, the amyloid nucleation score was 5.76 ± 0.066.

With AVRGINCCKRQSWKCNLCM, the amyloid nucleation score amounted to 0.915 ± 0.56.

Substance AVRWLHIGWSKETGRNCDCR registered an amyloid nucleation score of 0.671 ± 0.64.

As to AVTCSPPGPMQGLTFLFMAL, the amyloid nucleation score is -1.11 ± 1.

On to AVVKAVVNGRILFYRTREVS, for which the amyloid nucleation score is 0.226 ± 0.58.

Regarding AVVLLLNRTD, the amyloid nucleation score is 0.282 ± 0.59.

The substance AVYAAYFWGSI displayed an amyloid nucleation score of -0.065 ± 0.69.

Take AVYICPYLQSGNALATDMW: the amyloid nucleation score is 0.587 ± 1.1.

AWDVAS: the amyloid nucleation score turned out to be 0.967 ± 0.6.

As to AWNTGSIARHSFSRIVSTCD, the amyloid nucleation score was 0.182 ± 0.39.

With AWRIIPGILAFTFEEM, the amyloid nucleation score was -0.428 ± 0.79.

In turn, AYLNREFGFLFTLNFGCGFF returned an amyloid nucleation score of -0.636 ± 0.39.

AYLVFDGQ gave an amyloid nucleation score of -0.283 ± 0.37.

In turn, AYSCDLVELRVCAVSVWEEW came in with an amyloid nucleation score of 1.42 ± 0.41.

In turn, AYTLRYTFRYKYWLRYRLAG had an amyloid nucleation score of 0.861 ± 0.58.

As to CAQRPAVRSF, the amyloid nucleation score is -0.075 ± 0.98.

Substance CASMMPDSVSVRTKSNVT returned an amyloid nucleation score of -1.02 ± 1.3.

Take CAVLLVIGTAANEMCARRLI: the amyloid nucleation score is -0.197 ± 1.9.

In the case of CAVTDVRIIIHF, the amyloid nucleation score was found to be 2.15 ± 0.22.

For the substance CCCISDHESNCDSDQSRLGF, the amyloid nucleation score is 0.585 ± 0.36.

As for CCDDIRTQDLALRAQIP, the amyloid nucleation score is -0.21 ± 0.32.

CCFMYAQIDLLNFSMDVLAR had an amyloid nucleation score of 0.198 ± 0.29.

Substance CCHYDHKSGVNSLRRKTNVW returned an amyloid nucleation score of 1.57 ± 0.43.

CCLEWRWLRMEDDPVNGEDV came in with an amyloid nucleation score of -0.073 ± 0.43.

Regarding CCYDPNGLAKNKTW, the amyloid nucleation score was -0.013 ± 0.65.

Take CDMNPSDYDPLCEVSHRIIS: the amyloid nucleation score is 0.561 ± 0.24.

CDPGVKYSVSKAYRGWEYAL had an amyloid nucleation score of -0.042 ± 1.2.

Regarding CDVVVSSF, the amyloid nucleation score was -0.117 ± 0.88.

Regarding CDYLNGLKGYSP, the amyloid nucleation score was -0.19 ± 0.35.

As for CECHPFHPRVLVYGRYRFNP, the amyloid nucleation score is 0.033 ± 0.38.

On to CELPGLGVLLVGGKPMEWLN, for which the amyloid nucleation score result was “inactive”.

With CELPTRLF, the amyloid nucleation score is -0.143 ± 0.33.

Substance CESGW displayed an amyloid nucleation score of -0.115 ± 1.2.

CFFPVSPFFIIRGKIQIFYL: the amyloid nucleation score is -2.51 ± 2.7.

For CFLETMDFGH, the amyloid nucleation score is -0.472 ± 1.2.

As for CFNVSVSGEDSFLFGYGWHI, the amyloid nucleation score was 0.159 ± 0.66.

Substance CFPFIFRIGFTNNGADSLVK registered an amyloid nucleation score of -0.507 ± 0.63.

As for CFRHR, the amyloid nucleation score is 0.428 ± 0.5.

Regarding CFYAA, the amyloid nucleation score was -0.557 ± 0.56.

For CFYNKRLCGRPFMLVWQNYS, the amyloid nucleation score was determined as 0.161 ± 0.56.

Take CGAELRIGGCSGPGGMFQTR: the amyloid nucleation score stood at 0.031 ± 0.27.

Take CGEFGR: the amyloid nucleation score was -0.682 ± 0.52.

The substance CGGFRNMRVPVHLVPACRW showed an amyloid nucleation score of 0.334 ± 0.68.

Substance CGIDKSDRIMLIKTVQLSVQ displayed an amyloid nucleation score of 0.09 ± 0.68.

Turning to CGITGMATVLNELPKLKHML, the amyloid nucleation score is 0.202 ± 0.62.

In the case of CGMVGWTSLPEQNRYPIPST, the amyloid nucleation score is -0.511 ± 1.1.

CGNAWVKAIMW came in with an amyloid nucleation score of -0.191 ± 0.66.

Regarding CGVLKTRIPLCFGVFEWNSL, the amyloid nucleation score was 0.475 ± 0.72.

CGVMDGYLTAK had an amyloid nucleation score of -0.619 ± 0.32.

CGWNFTVIHFSLDSVSHLLY yielded an amyloid nucleation score of -0.568 ± 0.66.

CGWRQKLVMVETVTGFSLWG registered an amyloid nucleation score of 1.41 ± 0.88.

For the substance CHHSYCMITPLTVSTARNGW, the amyloid nucleation score is 0.749 ± 0.35.

For CICRRVSKTVLSLQANEAPC, the amyloid nucleation score is -0.561 ± 0.41.

Substance CICTRGMGSLSDCYELR gave an amyloid nucleation score of 0.689 ± 0.46.

In turn, CIFHL displayed an amyloid nucleation score of 0.303 ± 0.65.

In turn, CIFPRCVYLYHSVWVDVVGC returned an amyloid nucleation score of -0.097 ± 0.61.

Substance CIFSRNQGLIHRLEDNGH had an amyloid nucleation score of 0.685 ± 0.33.

In the case of CIFTRKGIEVVCWLEGRMVP, the amyloid nucleation score was determined as 0.411 ± 1.2.

Take CILGWKYLDVVYDQRRLRCG: the amyloid nucleation score came out at 0.939 ± 0.46.

With CIMPMIGKYVGVFSSGSSIS, the amyloid nucleation score result is “inactive”.

In turn, CIVNMNRGWISIDLLRD registered an amyloid nucleation score of 5.78 ± 0.073.

In turn, CIVVYLSLY returned an amyloid nucleation score of 3.32 ± 0.099.

As to CKDFRRAVVNEFPVSVSFYC, the amyloid nucleation score came to 0.922 ± 0.9.

For CKHVETK, the amyloid nucleation score was -0.535 ± 1.4.

Regarding CKQCRE, the amyloid nucleation score is -0.01 ± 0.74.

In the case of CKQRKCLGRIYVCEHISQSL, the amyloid nucleation score turned out to be 0.461 ± 0.67.

CLARGSKYWNRQNKVNFPYI: the amyloid nucleation score was determined as 1.51 ± 0.13.

CLCARML yielded an amyloid nucleation score of 0.542 ± 0.67.

As for CLDVGHIFLGKVEWTGEPW, the amyloid nucleation score is -0.375 ± 0.64.
